Source: the supplement of paper PMC9112550, “Optimization of the antimicrobial peptide Bac7 by deep mutational scanning” (BMC Biology, 2022)

Tested on: Escherichia coli TOP10
Test: shrunken log2 fold change of peptide-encoding DNA abundance (4.5 h post-induction vs induction); higher = less antimicrobial activity (less host growth inhibition)
Conditions: time post-induction: 4.5 h; library: site-saturation at positions 5, 18, 19, 20
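Also: peptides expressed intracellularly from a pBAD plasmid library in pooled LB shake-flask culture, induced with 0.3% L-arabinose, DNA abundance read by NGS, three biological replicates, DESeq2 with apeglm shrinkage.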

Sequence | shrunken log2 fold change
RRIRGRPPRLPRPRPRPHSMPRP | 0.0488
RRIRPRPPRLPRPRPRPTTSPRP | 0.181
RRIRLRPPRLPRPRPRPRIAPRP | 0.317
RRIRDRPPRLPRPRPRPKMIPRP | -0.185
RRIRWRPPRLPRPRPRPVVPPRP | 0.242
RRIRGRPPRLPRPRPRPSIGPRP | 0.0763
RRIRRRPPRLPRPRPRPECAPRP | 0.426
RRIRRRPPRLPRPRPRPEEDPRP | -0.0235
RRIRSRPPRLPRPRPRPQPAPRP | 0.0373
RRIRIRPPRLPRPRPRPRWDPRP | -0.12
RRIRWRPPRLPRPRPRPMNVPRP | 0.0542
RRIRMRPPRLPRPRPRPDPWPRP | 0.336
RRIRARPPRLPRPRPRPVNMPRP | -0.527
RRIRERPPRLPRPRPRPSIEPRP | -0.37
RRIRKRPPRLPRPRPRPGIEPRP | 1.34
RRIRFRPPRLPRPRPRPNLAPRP | -0.0885
RRIRKRPPRLPRPRPRPDWVPRP | 0.0285
RRIRPRPPRLPRPRPRPSRLPRP | -0.0839
RRIRIRPPRLPRPRPRPDSMPRP | -0.00884
RRIRPRPPRLPRPRPRPDHSPRP | -0.082
RRIRWRPPRLPRPRPRPVKRPRP | 0.015
RRIRGRPPRLPRPRPRPWVMPRP | 0.0476
RRIRYRPPRLPRPRPRPPDVPRP | -0.0764

Sequence | shrunken log2 fold change
RRIRERPPRLPRPRPRPDQYPRP | -0.0158
RRIRNRPPRLPRPRPRPKHFPRP | 0.054
RRIRSRPPRLPRPRPRPRTMPRP | 0.108
RRIRTRPPRLPRPRPRPGDWPRP | 0.73
RRIRKRPPRLPRPRPRPYKTPRP | -0.227
RRIRSRPPRLPRPRPRPCFTPRP | -0.521
RRIRGRPPRLPRPRPRPVHHPRP | -0.0799
RRIRPRPPRLPRPRPRPCARPRP | 0.0698
RRIRDRPPRLPRPRPRPRIWPRP | 0.53
RRIRLRPPRLPRPRPRPLFNPRP | -0.468
RRIRYRPPRLPRPRPRPGYNPRP | -0.0489
RRIRKRPPRLPRPRPRPWVLPRP | 0.0941
RRIRGRPPRLPRPRPRPACRPRP | 0.549
RRIRRRPPRLPRPRPRPCVFPRP | 0.022
RRIRIRPPRLPRPRPRPYANPRP | -0.0728
RRIRQRPPRLPRPRPRPCYEPRP | -0.0157
RRIRERPPRLPRPRPRPFRGPRP | -0.11
RRIRTRPPRLPRPRPRPFFVPRP | -0.142
RRIRIRPPRLPRPRPRPNQRPRP | 0.00427
RRIRLRPPRLPRPRPRPKGGPRP | 0.01
RRIRGRPPRLPRPRPRPMVTPRP | 1.29
RRIRQRPPRLPRPRPRPEFSPRP | 0.362
RRIRPRPPRLPRPRPRPAVAPRP | 0.416

Sequence | shrunken log2 fold change
RRIRRRPPRLPRPRPRPCPRPRP | 0.0796
RRIRKRPPRLPRPRPRPSLPPRP | -0.0153
RRIRRRPPRLPRPRPRPVVFPRP | 0.286
RRIRARPPRLPRPRPRPVGAPRP | 0.731
RRIRLRPPRLPRPRPRPKCLPRP | 0.117
RRIRWRPPRLPRPRPRPTGVPRP | 0.334
RRIRMRPPRLPRPRPRPNMKPRP | 0.0548
RRIRDRPPRLPRPRPRPWLWPRP | 0.0548
RRIRIRPPRLPRPRPRPCIIPRP | -0.467
RRIRFRPPRLPRPRPRPIVWPRP | 0.0539
RRIRGRPPRLPRPRPRPMYGPRP | -0.107
RRIRNRPPRLPRPRPRPACDPRP | -0.00482
RRIRYRPPRLPRPRPRPNCWPRP | -0.36
RRIRMRPPRLPRPRPRPPTWPRP | 0.627
RRIRLRPPRLPRPRPRPMAFPRP | -0.127
RRIRNRPPRLPRPRPRPQILPRP | -0.265
RRIRGRPPRLPRPRPRPGGYPRP | 0.505
RRIRWRPPRLPRPRPRPTARPRP | 0.0278
RRIRDRPPRLPRPRPRPIWNPRP | -0.0889
RRIRGRPPRLPRPRPRPRPRPRP | 1.31
RRIRDRPPRLPRPRPRPNSMPRP | 0.0952
RRIRRRPPRLPRPRPRPYKMPRP | 0.187
RRIRDRPPRLPRPRPRPQANPRP | 0.231

Sequence | shrunken log2 fold change
RRIRKRPPRLPRPRPRPKMCPRP | -0.0224
RRIRERPPRLPRPRPRPDLAPRP | 0.27
RRIRYRPPRLPRPRPRPVLMPRP | -0.83
RRIRMRPPRLPRPRPRPNANPRP | 0.777
RRIRSRPPRLPRPRPRPLEMPRP | -0.314
RRIRGRPPRLPRPRPRPWNMPRP | -0.0271
RRIRCRPPRLPRPRPRPEGQPRP | 0.788
RRIRLRPPRLPRPRPRPHCEPRP | -0.00711
RRIRSRPPRLPRPRPRPMRSPRP | 0.0162
RRIRWRPPRLPRPRPRPDTQPRP | -0.0933
RRIRHRPPRLPRPRPRPEWDPRP | 0.00396
RRIRKRPPRLPRPRPRPSMSPRP | 0.14
RRIRYRPPRLPRPRPRPQHMPRP | -0.629
RRIRGRPPRLPRPRPRPLQPPRP | 0.991
RRIRERPPRLPRPRPRPIDYPRP | -0.0881
RRIRMRPPRLPRPRPRPHRCPRP | 0.15
RRIRRRPPRLPRPRPRPWAMPRP | -0.136
RRIRLRPPRLPRPRPRPKTVPRP | -0.0699
RRIRFRPPRLPRPRPRPAKIPRP | 0.117
RRIRFRPPRLPRPRPRPANFPRP | 0.151
RRIRNRPPRLPRPRPRPHHEPRP | -0.534
RRIRWRPPRLPRPRPRPHLYPRP | -0.125
